# Data taken from PMC5358875 (Journal of the American Chemical Society, 2017).
# Bridge positions count the residues as written; N and C are the ends. Square brackets hold non-standard residues; d marks the D form. Ends that are not written are not given here. * marks the point of attachment. 5‑TAMRA = CN(C)c1ccc2c(-c3ccc(C(=O)*)cc3C(=O)[O-])c3ccc(N(C)C)cc3[o+]c2c1; Lys(N3) = [N-]=[N+]=NCCCC[C@H](N)C(=O)O; Dap(N3) = [N-]=[N+]=NC[C@H](N)C(=O)O; Aha = [N-]=[N+]=NCC[C@H](N)C(=O)O; m3N = not defined here; m3c = not defined here; m3 = not defined here; Ahx = NCCCCCC(=O)O
# T1: TNKS2 ARC4 (Homo sapiens, UniProt Q9H2K2)
# T1 construct: GST (cleaved yes); made in house; host or cells: E. coli C41(DE3)
# T1 sequence (Q9H2K2 488-649): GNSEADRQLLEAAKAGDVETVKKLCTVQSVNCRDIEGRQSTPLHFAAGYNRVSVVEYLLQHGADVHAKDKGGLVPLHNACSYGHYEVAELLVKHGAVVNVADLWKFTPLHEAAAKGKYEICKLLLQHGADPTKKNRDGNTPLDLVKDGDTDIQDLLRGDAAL
# T2: human tankyrase 2 ankyrin repeat cluster 4 (TNKS2 ARC4, residues 488-649) (human, UniProt Q9H2K2 488-649)
# T2 sequence (looked up): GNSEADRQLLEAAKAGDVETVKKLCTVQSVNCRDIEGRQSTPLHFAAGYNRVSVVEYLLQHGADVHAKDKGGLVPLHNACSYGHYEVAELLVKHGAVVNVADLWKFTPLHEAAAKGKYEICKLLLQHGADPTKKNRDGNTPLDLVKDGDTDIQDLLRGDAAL
# T3: human tankyrase 1 ankyrin repeat clusters 2-3 (TNKS1 ARC2-3, residues 315-662) (human, UniProt O95271 315-662)
# T3 sequence (looked up): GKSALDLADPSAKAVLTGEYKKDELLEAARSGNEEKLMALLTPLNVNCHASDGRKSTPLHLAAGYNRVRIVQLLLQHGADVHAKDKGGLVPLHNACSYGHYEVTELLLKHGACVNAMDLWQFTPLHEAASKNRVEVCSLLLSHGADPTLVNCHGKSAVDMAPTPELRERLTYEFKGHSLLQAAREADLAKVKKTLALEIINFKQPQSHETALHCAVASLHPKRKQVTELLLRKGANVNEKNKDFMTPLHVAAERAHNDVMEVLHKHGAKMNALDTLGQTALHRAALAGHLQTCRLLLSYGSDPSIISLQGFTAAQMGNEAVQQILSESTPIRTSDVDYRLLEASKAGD
# Tests used:
# TNKS2 ARC4 = target: T1, TNKS2 ARC4; assay: Direct fluorescence polarization, TNKS2 ARC4; assay type: binding; details: TAMRA-labeled peptides, n.d. = not detectable; for Kd: read-out: Kd TNKS2 ARC4 (Direct FP)
# Procedure: Fluorescence polarization (FP) assays were performed in 96-well half area black microplates (Corning) on a CLARIOstar microplate reader (BMG labtech) using excitation filter 540–20 nm, dichroic mirror LP 566 nm, and emission filter 590–20 nm. All peptides were dissolved in water as stock solutions. For direct FP assays, the stock concentrations of the TAMRA-labeled peptides were determined based on the 5-TAMRA absorbance at 556 nm (extinction coefficient ε = 89,000 M^–1 cm^–1) measured on a NanoDrop 2000 (Thermo Scientific) and verified by amino acid analysis (Department of Biochemistry, University of Cambridge). TNKS2 ARC4 (488–649) or TNKS1 ARC2–3 (315–662) was diluted 2-fold serially in the assay buffer (50 mM HEPES pH 7.5, 300 mM NaCl, 2 mM DTT, 0.05% (v/v) Tween 20) for a 12-point titration curve in triplicate. The diluted TAMRA-labeled peptide (20 nM, 50 μL) was mixed with the serially diluted TNKS2 ARC4 or TNKS1 ARC2–3 (40–0 μM, 50 μL) in each well and incubated for 30 min at 25 °C before the measurement. Data were analyzed on GraphPad Prism 5.0, and the dissociation constant, Kd, was determined using the following equation assuming the ratio between the concentration of the bound and that of the total TAMRA-labeled peptide is proportional to the fluorescence polarization [drawing 1] where FP is the fluorescence polarization, B is the minimum FP, T is the maximum FP, L0 is the total concentration of TAMRA-labeled peptide, P0 is the total concentration of protein, and Kd is the dissociation constant.
# [1] = target: T2, human tankyrase 2 ankyrin repeat …; assay: ITC; TNKS2 ARC4 (160-280 uM) or TNKS1 ARC2-3 (60-150 uM) titrated into the cell with unlabeled peptide (5-15 uM) or Axin1 fragment (8-12 uM); PBS, 0.5 mM TCEP; 25 C; one-site model; stoichiometry = TNKS per peptide or Axin1; details: both partners purified
# [2] = target: T3, human tankyrase 1 ankyrin repeat …; assay: as above; details: both partners purified
# [3] = target: T2, human tankyrase 2 ankyrin repeat …; assay: fluorescence polarisation; competition: unlabeled peptide or Axin1 fragment diluted 2-fold serially against TAMRA-labeled pep1 (20 nM) with TNKS2 ARC4 (3 uM); PBS, 0.05% Tween 20; 30 min, 25 C; details: both partners purified
# [4] = target: T2, human tankyrase 2 ankyrin repeat …; assay: fluorescence polarisation; direct: TNKS2 ARC4 or TNKS1 ARC2-3 diluted 2-fold serially (40-0 uM, 50 uL) and mixed with TAMRA-labeled peptide (20 nM, 50 uL); 50 mM HEPES pH 7.5, 300 mM NaCl, 2 mM DTT, 0.05% Tween 20; 30 min, 25 C; details: both partners purified
# [5] = target: T3, human tankyrase 1 ankyrin repeat …; assay: as above; details: both partners purified
molecule,measurement,setting,value
CC(C)C[C@H](NC(=O)c1cc2cc(c1)-c1cn(nn1)CC[C@H](NC(=O)[C@H](CCC(=O)O)NC(=O)[C@H](CCCNC(=N)N)NC(=O)CCCCCNC(=O)c1ccc3c(c1)C(=O)OC31c3ccc(N(C)C)cc3Oc3cc(N(C)C)ccc31)C(=O)NCC(=O)N[C@@H](CC(=O)O)C(=O)NCC(=O)N[C@H](C(=O)N[C@@H](CCC(=O)O)C(N)=O)CCn1cc-2nn1)C(=O)N[C@@H](CS)C(=O)N[C@@H](CC(C)C)C(=O)N[C@@H](CCCNC(=N)N)C(N)=O [T-cp4n2m3c-LCLR],Kd,TNKS2 ARC4,730 ± 20 nM
CN(C)c1ccc2c(c1)Oc1cc(N(C)C)ccc1C21OC(=O)c2cc(C(=O)NCCCCCC(=O)N[C@@H](CCCNC(=N)N)C(=O)N[C@@H](CCC(=O)O)C(=O)N[C@H]3CCn4cc(nn4)CN(CC(=O)O)Cc4cn(nn4)CC[C@@H](C(=O)N[C@@H](CCC(=O)O)C(N)=O)NC(=O)CNC(=O)[C@H](CC(=O)O)NC(=O)CNC3=O)ccc21 [T-cp4n2m3N],Kd,TNKS2 ARC4,1200 ± 20 nM
"cp4n1m3: non-binding cross-linked peptide, REXGDGXE, UAA side chains n=1, linker m3 (RE[Dap(N3)]GDG[Dap(N3)]E; linker 3-7 via m3 (inferred); reading uncertain)",Kd TNKS2 ARC4 (Direct FP),TNKS2 ARC4,nondetectable
CN(C)c1ccc2c(c1)Oc1cc(N(C)C)ccc1C21OC(=O)c2cc(C(=O)NCCCCCC(=O)N[C@@H](CCCNC(=N)N)C(=O)N[C@@H](CCC(=O)O)C(=O)N[C@H]3CCn4cc(nn4)-c4cc(C(=O)O)cc(c4)-c4cn(nn4)CC[C@@H](C(=O)N[C@@H](CCC(=O)O)C(N)=O)NC(=O)CNC(=O)[C@H](CC(=O)O)NC(=O)CNC3=O)ccc21 [T-cp4n2m3c],Kd,TNKS2 ARC4,440 ± 10 nM
CN(C)c1ccc2c(c1)Oc1cc(N(C)C)ccc1C21OC(=O)c2cc(C(=O)NCCCCCC(=O)N[C@@H](CCCNC(=N)N)C(=O)N[C@@H](CCC(=O)O)C(=O)N[C@H]3CCn4cc(nn4)-c4cc(C(=O)N[C@@H](CCCNC(=N)N)C(=O)N[C@@H](CCCNC(=N)N)C(=O)N[C@@H](CCCNC(=N)N)C(=O)N[C@@H](CCCNC(=N)N)C(=O)N[C@@H](CCCNC(=N)N)C(=O)N[C@@H](CCCNC(=N)N)C(=O)N[C@@H](CCCNC(=N)N)C(=O)N[C@@H](CCCNC(=N)N)C(=O)N[C@@H](CCCNC(=N)N)C(N)=O)cc(c4)-c4cn(nn4)CC[C@@H](C(=O)N[C@@H](CCC(=O)O)C(N)=O)NC(=O)CNC(=O)[C@H](CC(=O)O)NC(=O)CNC3=O)ccc21 [T-cp4n2m3c-R9],Kd,TNKS2 ARC4,740 ± 30 nM
CN(C)c1ccc2c(c1)Oc1cc(N(C)C)ccc1C21OC(=O)c2cc(C(=O)NCCCCCC(=O)N[C@@H](CCCNC(=N)N)C(=O)N[C@@H](CCC(=O)O)C(=O)N[C@H]3CCn4cc(nn4)CCCc4cn(nn4)CCC[C@@H](C(=O)N[C@@H](CCC(=O)O)C(N)=O)NC(=O)CNC(=O)[C@H](CC(=O)O)NC(=O)CNC3=O)ccc21 [T-cp4n23m3],Kd,TNKS2 ARC4,1100 ± 40 nM
CN(C)c1ccc2c(c1)Oc1cc(N(C)C)ccc1C21OC(=O)c2cc(C(=O)NCCCCCC(=O)N[C@@H](CCCNC(=N)N)C(=O)N[C@@H](CCC(=O)O)C(=O)N[C@H]3CCn4cc(nn4)CCCCc4cn(nn4)CC[C@@H](C(=O)N[C@@H](CCC(=O)O)C(N)=O)NC(=O)CNC(=O)[C@H](CC(=O)O)NC(=O)CNC3=O)ccc21 [T-cp4n2m4],Kd,TNKS2 ARC4,800 ± 20 nM
CN(C)c1ccc2c(c1)Oc1cc(N(C)C)ccc1C21OC(=O)c2cc(C(=O)NCCCCCC(=O)N[C@@H](CCCNC(=N)N)C(=O)N[C@@H](CCC(=O)O)C(=O)N[C@H]3CCCn4cc(nn4)CCCc4cn(nn4)CCC[C@@H](C(=O)N[C@@H](CCC(=O)O)C(N)=O)NC(=O)CNC(=O)[C@H](CC(=O)O)NC(=O)CNC3=O)ccc21 [T-cp4n3m3],Kd,TNKS2 ARC4,2600 ± 100 nM
Ac-RE[Aha]GDG[Aha]E-NH2 (triazole 3-7 via m3; reading uncertain) [cp4n2m3 (unlabeled)],Kd,[1],890 ± 40 nM
same,stoichiometry N,[1],0.9 ± 0.005
same,Kd,[2],260 ± 30 nM
same,stoichiometry N,[2],0.9 ± 0.01
Ac-R[Lys(N3)]AGDG[Lys(N3)]E (bridge 2-7; not fully specified (bridges)) [cp2n4m5],Kd,[3],14100 ± 4000 nM
Ac-RE[Aha]GDG[Aha]E-NH2 (bridge 3-7; not fully specified (bridges)) [cp4n2m3c (unlabeled)],Kd,[1],640 ± 10 nM
same,stoichiometry N,[1],1.1 ± 0.002
same,Kd,[2],370 ± 40 nM
same,stoichiometry N,[2],1.1 ± 0.02
Ac-RE[Lys(N3)]GDG[Lys(N3)]E (bridge 3-7; not fully specified (bridges)) [cp4n4m7N],Kd,[3],6500 ± 200 nM
{5‑TAMRA-Ahx}-RE[Aha]GDG[Aha]E-NH2 (triazole 3-7 via m3c; reading uncertain) [T-cp4n2m3c],Kd,[4],400 ± 10 nM
same,Kd,[5],320 ± 3 nM
Ac-RE[Lys(N3)]GDG[Lys(N3)]E (bridge 3-7; not fully specified (bridges)) [cp4n4m5c],Kd,[3],16700 ± 2000 nM
Ac-R[Lys(N3)]AGDGE[Lys(N3)] (bridge 2-8; not fully specified (bridges)) [cp3n4m7N],Kd,[3],35500 ± 2500 nM
Ac-REAGDGEE-NH2 [pep1 (unlabeled linear consensus peptide Ac-REAGDGEE)],Kd,[1],1180 ± 40 nM
same,stoichiometry N,[1],1 ± 0.004
same,stoichiometry N,[2],0.9 ± 0.01
Ac-RE[Lys(N3)]GDG[Lys(N3)]E-NH2 (bridge 3-7; not fully specified (bridges)) [cp4n4m5],Kd,[3],2800 ± 100 nM
{5‑TAMRA-Ahx}-RE[Aha]GDG[Aha]E (triazole 3-7 via m3N; reading uncertain) [T-cp4n2m3N],Kd,[5],280 ± 5 nM
Ac-R[Lys(N3)]AGDGE[Lys(N3)] (bridge 2-8; not fully specified (bridges)) [cp3n4m5],Kd,[3],23400 ± 4200 nM
Ac-R[Lys(N3)]AGDG[Lys(N3)]E (bridge 2-7; not fully specified (bridges)) [cp2n4m7N],Kd,[3],32400 ± 1700 nM
{5‑TAMRA-Ahx}-RE[Aha]GDG[Aha]E (triazole 3-7 via m3; reading uncertain) [T-cp4n2m3],Kd,[5],180 ± 7 nM
